# How the values were obtained:
# eTau1b = eTau1b (UniProt P10636); assay: relative binding affinity, method not named; eTau 1b
# eTau2 = eTau2 (UniProt P10636); assay: relative binding affinity, method not named; eTau 2
# Sequence of UniProt P10636 (P10636 other isoform, or with tags, fused parts or gaps): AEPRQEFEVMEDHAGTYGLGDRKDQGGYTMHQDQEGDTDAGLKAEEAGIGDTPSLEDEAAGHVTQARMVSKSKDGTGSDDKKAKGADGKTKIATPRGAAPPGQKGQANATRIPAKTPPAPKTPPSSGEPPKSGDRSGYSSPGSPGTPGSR
Kd (eTau1b) [nM],Kd (eTau2) [nM],Binder
0.558,0.361,"humanized IPN002 variant VH1/Vk2 (antibody, V domains shown) VH: EVHLVESGGALVKPGGSLRLSCAASGFSFSKYGMSWVRQAPGKGLEWVATISSSGSRTYYPDSVKGRFTISRDNAKNTLYLQMSSLKSEDTAMYYCSISWDGAMDYWGQGTSVTVSS VL: DVVMTQSPLSLPVTLGQPASISCKSSQSIVHSNGNTYLEWYLQKPGQSPQLLVYKVSNRFSGVPDRFSGSGSGTDFTLKISRVEAEDVGTYYCFQGSLVPWAFGGGTKVEIK"
0.313,0.473,"humanized IPN002 variant VH4/Vk3 (antibody, V domains shown) VH: EVQLVESGGALVKPGGSLRLSCAASGFSFSKYGMSWVRQAPGKGLEWVATISSSGSRTYYPDSVKGRFTISRDNAKNTLYLQMNSLRAEDTAMYYCAISWDGAMDYWGQGTTVTVSS VL: DVVMTQSPLSLPVTLGQPASISCKSSQSIVHSNGNTYLEWYLQKPGQSPQLLVYKVSNRFSGVPDRFSGSGSGTDFTLKISRVEAEDVGVYYCFQGSLVPWAFGGGTKVEIK"
0.59,0.444,"humanized IPN002 variant VH1/Vk3 (antibody, V domains shown) VH: EVHLVESGGALVKPGGSLRLSCAASGFSFSKYGMSWVRQAPGKGLEWVATISSSGSRTYYPDSVKGRFTISRDNAKNTLYLQMSSLKSEDTAMYYCSISWDGAMDYWGQGTSVTVSS VL: DVVMTQSPLSLPVTLGQPASISCKSSQSIVHSNGNTYLEWYLQKPGQSPQLLVYKVSNRFSGVPDRFSGSGSGTDFTLKISRVEAEDVGVYYCFQGSLVPWAFGGGTKVEIK"
0.529,0.705,"humanized IPN002 variant VH3/Vk1 (antibody, V domains shown) VH: EVQLVESGGALVKPGGSLRLSCAASGFSFSKYGMSWVRQAPGKGLEWVATISSSGSRTYYPDSVKGRFTISRDNAKNTLYLQMNSLRAEDTAMYYCSISWDGAMDYWGQGTTVTVSS VL: DVLMTQSPLSLPVTLGQPASISCKSSQSIVHSNGNTYLEWYLQKPGQSPQLLVYKVSNRFSGVPDRFSGSGSGTDFTLKISRVEAEDVGTYYCFQGSLVPWAFGGGTKVEIK"
0.359,0.405,"humanized IPN002 variant VH4/Vk1 (antibody, V domains shown) VH: EVQLVESGGALVKPGGSLRLSCAASGFSFSKYGMSWVRQAPGKGLEWVATISSSGSRTYYPDSVKGRFTISRDNAKNTLYLQMNSLRAEDTAMYYCAISWDGAMDYWGQGTTVTVSS VL: DVLMTQSPLSLPVTLGQPASISCKSSQSIVHSNGNTYLEWYLQKPGQSPQLLVYKVSNRFSGVPDRFSGSGSGTDFTLKISRVEAEDVGTYYCFQGSLVPWAFGGGTKVEIK"
0.737,0.465,"humanized IPN002 variant VH1/Vk1 (antibody, V domains shown) VH: EVHLVESGGALVKPGGSLRLSCAASGFSFSKYGMSWVRQAPGKGLEWVATISSSGSRTYYPDSVKGRFTISRDNAKNTLYLQMSSLKSEDTAMYYCSISWDGAMDYWGQGTSVTVSS VL: DVLMTQSPLSLPVTLGQPASISCKSSQSIVHSNGNTYLEWYLQKPGQSPQLLVYKVSNRFSGVPDRFSGSGSGTDFTLKISRVEAEDVGTYYCFQGSLVPWAFGGGTKVEIK"

# Second part, the binder before the results:
Binder,Kd (eTau1b) [nM],Kd (eTau2) [nM]
"humanized IPN002 variant VH3/Vk2 (antibody, V domains shown) VH: EVQLVESGGALVKPGGSLRLSCAASGFSFSKYGMSWVRQAPGKGLEWVATISSSGSRTYYPDSVKGRFTISRDNAKNTLYLQMNSLRAEDTAMYYCSISWDGAMDYWGQGTTVTVSS VL: DVVMTQSPLSLPVTLGQPASISCKSSQSIVHSNGNTYLEWYLQKPGQSPQLLVYKVSNRFSGVPDRFSGSGSGTDFTLKISRVEAEDVGTYYCFQGSLVPWAFGGGTKVEIK",0.614,0.408
"humanized IPN002 variant VH2/Vk4 (antibody, V domains shown) VH: EVHLVESGGALVKPGGSLRLSCAASGFSFSKYGMSWVRQAPGKGLEWVATISSSGSRTYYPDSVKGRFTISRDNAKNTLYLQMNSLRAEDTAMYYCSISWDGAMDYWGQGTTVTVSS VL: DVVMTQSPLSLPVTLGQPASISCKSSQSIVHSNGNTYLEWYLQKPGQSPQLLIYKVSNRFSGVPDRFSGSGSGTDFTLKISRVEAEDVGVYYCFQGSLVPWAFGGGTKVEIK",0.52,0.354
"humanized IPN002 variant VH1/Vk4 (antibody, V domains shown) VH: EVHLVESGGALVKPGGSLRLSCAASGFSFSKYGMSWVRQAPGKGLEWVATISSSGSRTYYPDSVKGRFTISRDNAKNTLYLQMSSLKSEDTAMYYCSISWDGAMDYWGQGTSVTVSS VL: DVVMTQSPLSLPVTLGQPASISCKSSQSIVHSNGNTYLEWYLQKPGQSPQLLIYKVSNRFSGVPDRFSGSGSGTDFTLKISRVEAEDVGVYYCFQGSLVPWAFGGGTKVEIK",0.597,0.427
"humanized IPN002 variant VH2/Vk1 (antibody, V domains shown) VH: EVHLVESGGALVKPGGSLRLSCAASGFSFSKYGMSWVRQAPGKGLEWVATISSSGSRTYYPDSVKGRFTISRDNAKNTLYLQMNSLRAEDTAMYYCSISWDGAMDYWGQGTTVTVSS VL: DVLMTQSPLSLPVTLGQPASISCKSSQSIVHSNGNTYLEWYLQKPGQSPQLLVYKVSNRFSGVPDRFSGSGSGTDFTLKISRVEAEDVGTYYCFQGSLVPWAFGGGTKVEIK",0.215,0.225
"humanized IPN002 variant VH4/Vk2 (antibody, V domains shown) VH: EVQLVESGGALVKPGGSLRLSCAASGFSFSKYGMSWVRQAPGKGLEWVATISSSGSRTYYPDSVKGRFTISRDNAKNTLYLQMNSLRAEDTAMYYCAISWDGAMDYWGQGTTVTVSS VL: DVVMTQSPLSLPVTLGQPASISCKSSQSIVHSNGNTYLEWYLQKPGQSPQLLVYKVSNRFSGVPDRFSGSGSGTDFTLKISRVEAEDVGTYYCFQGSLVPWAFGGGTKVEIK",0.483,0.451
"humanized IPN002 variant VH2/Vk3 (antibody, V domains shown) VH: EVHLVESGGALVKPGGSLRLSCAASGFSFSKYGMSWVRQAPGKGLEWVATISSSGSRTYYPDSVKGRFTISRDNAKNTLYLQMNSLRAEDTAMYYCSISWDGAMDYWGQGTTVTVSS VL: DVVMTQSPLSLPVTLGQPASISCKSSQSIVHSNGNTYLEWYLQKPGQSPQLLVYKVSNRFSGVPDRFSGSGSGTDFTLKISRVEAEDVGVYYCFQGSLVPWAFGGGTKVEIK",0.287,0.261
"humanized IPN002 variant VH3/Vk4 (antibody, V domains shown) VH: EVQLVESGGALVKPGGSLRLSCAASGFSFSKYGMSWVRQAPGKGLEWVATISSSGSRTYYPDSVKGRFTISRDNAKNTLYLQMNSLRAEDTAMYYCSISWDGAMDYWGQGTTVTVSS VL: DVVMTQSPLSLPVTLGQPASISCKSSQSIVHSNGNTYLEWYLQKPGQSPQLLIYKVSNRFSGVPDRFSGSGSGTDFTLKISRVEAEDVGVYYCFQGSLVPWAFGGGTKVEIK",0.382,0.447
"humanized IPN002 variant VH3/Vk3 (antibody, V domains shown) VH: EVQLVESGGALVKPGGSLRLSCAASGFSFSKYGMSWVRQAPGKGLEWVATISSSGSRTYYPDSVKGRFTISRDNAKNTLYLQMNSLRAEDTAMYYCSISWDGAMDYWGQGTTVTVSS VL: DVVMTQSPLSLPVTLGQPASISCKSSQSIVHSNGNTYLEWYLQKPGQSPQLLVYKVSNRFSGVPDRFSGSGSGTDFTLKISRVEAEDVGVYYCFQGSLVPWAFGGGTKVEIK",0.689,0.471
"humanized IPN002 variant VH4/Vk4 (antibody, V domains shown) VH: EVQLVESGGALVKPGGSLRLSCAASGFSFSKYGMSWVRQAPGKGLEWVATISSSGSRTYYPDSVKGRFTISRDNAKNTLYLQMNSLRAEDTAMYYCAISWDGAMDYWGQGTTVTVSS VL: DVVMTQSPLSLPVTLGQPASISCKSSQSIVHSNGNTYLEWYLQKPGQSPQLLIYKVSNRFSGVPDRFSGSGSGTDFTLKISRVEAEDVGVYYCFQGSLVPWAFGGGTKVEIK",0.535,0.564
"humanized IPN002 variant VH2/Vk2 (antibody, V domains shown) VH: EVHLVESGGALVKPGGSLRLSCAASGFSFSKYGMSWVRQAPGKGLEWVATISSSGSRTYYPDSVKGRFTISRDNAKNTLYLQMNSLRAEDTAMYYCSISWDGAMDYWGQGTTVTVSS VL: DVVMTQSPLSLPVTLGQPASISCKSSQSIVHSNGNTYLEWYLQKPGQSPQLLVYKVSNRFSGVPDRFSGSGSGTDFTLKISRVEAEDVGTYYCFQGSLVPWAFGGGTKVEIK",0.229,0.283

# Source: patent US20150232544A1
